# Test results taken from IntAct's records for PubMed 22705394.
# B1: Ras-related protein Rab-21 (Homo sapiens), Q9UL25 (parent)
# chain: MAAAGGGGGGAAAAGRAYSFKVVLLGEGCVGKTSLVLRYCENKFNDKHITTLQASFLTKKLNIGGKRVNLAIWDTAGQERFHALGPIYYRDSNGAILVYDITDEDSFQKVKNWVKELRKMLGNEICLCIVGNKIDLEKERHVSIQEAESYAESVGAKHYHTSAKQNKGIEELFLDLCKRMIETAQVDERAKGNGSSQPGTARRGVQIIDDEPQAQTSGGGCCSSG
# Variants of: B1
# Details: with macf1_human MACF1, Q9UPN3
row,effect of a mutation on the interaction,Variant
1,decreasing interaction,MAAAGGGGGGAAAAGRAYSFKVVLLGEGCVGKNSLVLRYCENKFNDKHITTLQASFLTKKLNIGGKRVNLAIWDTAGQERFHALGPIYYRDSNGAILVYDITDEDSFQKVKNWVKELRKMLGNEICLCIVGNKIDLEKERHVSIQEAESYAESVGAKHYHTSAKQNKGIEELFLDLCKRMIETAQVDERAKGNGSSQPGTARRGVQIIDDEPQAQTSGGGCCSSG [T33N]

# Variants of: B1
# Details: with MACF1, Q9UPN3-1
row,effect of a mutation on the interaction,Variant
1,decreasing interaction,MAAAGGGGGGAAAAGRAYSFKVVLLGEGCVGKNSLVLRYCENKFNDKHITTLQASFLTKKLNIGGKRVNLAIWDTAGQERFHALGPIYYRDSNGAILVYDITDEDSFQKVKNWVKELRKMLGNEICLCIVGNKIDLEKERHVSIQEAESYAESVGAKHYHTSAKQNKGIEELFLDLCKRMIETAQVDERAKGNGSSQPGTARRGVQIIDDEPQAQTSGGGCCSSG [T33N]
